Results as given in article PMC11927390 (2025).
Residue numbers refer to the chain shown, from its start.

B1: human ULBP3 (ligand)
chain: DAHSLWYNFTIIHLPRHGQQWCEVQSQVDQKNFLSYDCGSDKVLSMGHLEEQLYATDAWGKQLEMLREVGQRLRLELADTELEDFTPSGPLTLQVRMSCECEADGYIRGSWQFSFDGRKFLLFDSNNRKWTVVHAGARRMKEKWEKDSGLTTFFKMVSMRDCKSWLRDFLMHRKKRLEPTAPPTMAPG
B2: human MICA (MHC class I polypeptide-related sequence A), soluble recombinant (ligand)
chain: EPHSLRYNLTVLSWDGSVQSGFLTEVHLDGQPFLRCDRQKCRAKPQGQWAEDVLGNKTWDRETRDLTGNGKDLRMTLAHIKDQKEGLHSLQEIRVCEIHEDNSTRSSQHFYYDGELFLSQNLETKEWTMPQSSRAQTLAMNVRNFLKEDAMKTKTHYHAMHADCLQELRRYLKSGVVLRRTVPPMVNVTRSEASEGNITVTCRASGFYPWNITLSWRQDGVSLSHDTQQWGDVLPDGNGTYQTWVATRICQGEEQRFTCYMEHSGNHSTHPVPSGKVLVLQSHW
B3: Fc-tagged human NKG2D (Fc fusion)
chain: IWSAVFLNSLFNQEVQIPLTESYCGPCPKNWICYKNNCYQFFDESKNWYESQASCMSQNASLLKVYSKEDQDLLKLVKSYHWMGLVHIPTNGSWQWEDGSILSPNLLTIIEMQKGDCALYASSFKGYIENCSTPNTYICMQRTV
B4: human ULBP2 (ligand)
chain: GRADPHSLCYDITVIPKFRPGPRWCAVQGQVDEKTFLHYDCGNKTVTPVSPLGKKLNVTTAWKAQNPVLREVVDILTEQLRDIQLENYTPKEPLTLQARMSCEQKAEGHSSGSWQFSFDGQIFLLFDSEKRMWTTVHPGARKMKEKWENDKVVAMSFHYFSMGDCIGWLEDFLMGMDSTLEPSAGAPLAMSS
B5: human ULBP1 (ligand)
chain: GWVDTHCLCYDFIITPKSRPEPQWCEVQGLVDERPFLHYDCVNHKAKAFASLGKKVNVTKTWEEQTETLRDVVDFLKGQLLDIQVENLIPIEPLTLQARMSCEHEAHGHGRGSWQFLFNGQKFLLFDSNNRKWTALHPGAKKMTEKWEKNRDVTMFFQKISLGDCKMWLEEFLMYWEQMLDPTKPPSLAPG
B6: human ULBP5 (ligand)
chain: GLADPHSLCYDITVIPKFRPGPRWCAVQGQVDEKTFLHYDCGSKTVTPVSPLGKKLNVTTAWKAQNPVLREVVDILTEQLLDIQLENYIPKEPLTLQARMSCEQKAEGHGSGSWQLSFDGQIFLLFDSENRMWTTVHPGARKMKEKWENDKDMTMSFHYISMGDCTGWLEDFLMGMDSTLEPSAGAPPTMSSG
B7: human ULBP6-02 extracellular domain (residues R26-G218) (ligand)
chain: RRDDPHSLCYDITVIPKFRPGPRWCAVQGQVDEKTFLHYDCGNKTVTPVSPLGKKLNVTMAWKAQNPVLREVVDILTEQLLDIQLENYTPKEPLTLQARMSCEQKAEGHSSGSWQFSIDGQTFLLFDSEKRMWTTVHPGARKMKEKWENDKDVAMSFHYISMGDCIGWLEDFLMGMDSTLEPSAGAPLAMSSG
modifications: glycosylation of residues N68 and N82 (in the crystal structure)
B8: human ULBP6-01 (residues G26-G218) (ligand)
chain: B7 chain with R1G, M60T, L81R, T122I

How the values were obtained:
[1] = target: B3; test: SPR
[2] = target: MICB; test: SPR

Which Kd [1] does the source give for B1 here?
Its Kd is 836 nM.

With B2 as the binder, how does the Kd [1] read?
The Kd was 83.2 nM.

B3 was tested. Which Kd [2] did it give?
The Kd was 105 nM.

B4 was tested. Which Kd [1] did it give?
The Kd was 262 nM.

How did the Kd [1] turn out when B5 was run?
The Kd was 138 nM.

B6 was tested. Which Kd [1] did it give?
Its Kd is 93.4 nM.

With B7 as the binder, how does the Kd [1] read?
Its Kd is 2.69 nM.

How did the Kd [1] turn out when B8 was run?
The Kd was 42.7 nM.
